Source: US20040146507A1 (Genentech, published 2004)
Changes are numbered by the printed parent chain.

T1: rhesus CD11a (rhesus, UniProt H9Z8N3 26-1169)
T1 construct: whole, on cells; On rhesus peripheral blood lymphocytes or leukocytes; also called rhCD11a
T1 sequence: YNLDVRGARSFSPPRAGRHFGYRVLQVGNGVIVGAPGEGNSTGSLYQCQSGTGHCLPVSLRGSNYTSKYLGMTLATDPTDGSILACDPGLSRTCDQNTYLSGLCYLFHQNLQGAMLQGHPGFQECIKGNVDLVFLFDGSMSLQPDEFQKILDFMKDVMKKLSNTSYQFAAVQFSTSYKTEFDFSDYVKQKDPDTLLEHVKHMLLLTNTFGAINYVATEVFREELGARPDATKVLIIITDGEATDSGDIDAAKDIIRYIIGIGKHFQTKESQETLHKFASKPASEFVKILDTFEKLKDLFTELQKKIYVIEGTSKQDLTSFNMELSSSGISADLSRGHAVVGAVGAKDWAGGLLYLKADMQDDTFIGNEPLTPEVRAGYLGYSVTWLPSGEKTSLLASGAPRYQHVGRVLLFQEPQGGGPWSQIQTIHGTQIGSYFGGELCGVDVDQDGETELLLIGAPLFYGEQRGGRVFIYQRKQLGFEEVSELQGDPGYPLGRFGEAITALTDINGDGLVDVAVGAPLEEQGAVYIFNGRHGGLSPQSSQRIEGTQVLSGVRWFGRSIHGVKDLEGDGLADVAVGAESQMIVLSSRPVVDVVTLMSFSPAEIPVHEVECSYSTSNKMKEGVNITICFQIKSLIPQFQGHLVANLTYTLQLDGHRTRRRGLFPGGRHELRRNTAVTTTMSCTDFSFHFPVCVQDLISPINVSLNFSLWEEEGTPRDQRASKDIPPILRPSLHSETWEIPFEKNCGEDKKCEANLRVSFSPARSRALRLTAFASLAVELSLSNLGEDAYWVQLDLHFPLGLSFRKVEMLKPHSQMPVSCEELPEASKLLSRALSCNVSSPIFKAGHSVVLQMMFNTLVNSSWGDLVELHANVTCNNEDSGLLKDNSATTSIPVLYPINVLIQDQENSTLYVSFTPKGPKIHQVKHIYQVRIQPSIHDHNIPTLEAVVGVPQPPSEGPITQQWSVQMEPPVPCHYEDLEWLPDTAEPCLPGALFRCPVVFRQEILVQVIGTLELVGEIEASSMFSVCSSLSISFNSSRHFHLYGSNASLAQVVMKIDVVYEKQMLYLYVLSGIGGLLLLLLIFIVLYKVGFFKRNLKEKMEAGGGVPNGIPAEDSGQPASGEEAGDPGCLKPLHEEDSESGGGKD

B1: HuIgG1 mutant GluH56Ala (antibody, V domains shown)
VH: EVQLVESGGGLVQPGGSLRLSCAASGYSFTGHWMNWVRQAPGKGLEWVGMIHPSDSATRYNQKFKDRFTISVDKSKNTLYLQMNSLRAEDTAVYYCARGIYFYGTTYFDYWGQGTLVTVSS
VL: DIQMTQSPSSLSASVGDRVTITCRASKTISKYLAWYQQKPGKAPKLLIYSGSTLQSGVPSRFSGSGSGTDFTLTISSLQPEDFATYYCQQHNEYPLTFGQGTKVEIK
notes: HuIgG1 mutant, human IgG1; Kabat numbering
B2: HuIgG1 mutant H2 (antibody, V domains shown)
VH: B1 VH with H52A, S54A, S56A, A57E
VL: B1 VL
notes: as for B1
B3: HuIgG1 mutant GluL93Ala (antibody, V domains shown)
VH: B1 VH with A57E
VL: DIQMTQSPSSLSASVGDRVTITCRASKTISKYLAWYQQKPGKAPKLLIYSGSTLQSGVPSRFSGSGSGTDFTLTISSLQPEDFATYYCQQHNAYPLTFGQGTKVEIKR
notes: as for B1
B4: HuIgG1 mutant SerH53Ala (antibody, V domains shown)
VH: B1 VH with S54A, A57E
VL: B1 VL
notes: as for B1
B5: HuIgG1 mutant H2A3 (antibody, V domains shown)
VH: B1 VH with H52A, S56A, A57E
VL: B1 VL
notes: as for B1
B6: HuIgG1 mutant ArgH58Ala (antibody, V domains shown)
VH: B1 VH with A57E, R59A
VL: B1 VL
notes: as for B1
B7: HuIgG1 mutant LysH62Ala (antibody, V domains shown)
VH: B1 VH with A57E, K63A
VL: B1 VL
notes: as for B1
B8: HuIgG1 mutant ThrH30Ala (antibody, V domains shown)
VH: B1 VH with T30A, A57E
VL: B1 VL
notes: as for B1
B9: HuIgG1 mutant ThrL53Ala (antibody, V domains shown)
VH: B1 VH with A57E
VL: B3 VL with T53A, A93E
notes: as for B1
B10: HuIgG1 mutant SerL50Ala (antibody, V domains shown)
VH: B1 VH with A57E
VL: B3 VL with S50A, A93E
notes: as for B1
B11: HuIgG1 mutant L1 (antibody, V domains shown)
VH: B1 VH with A57E
VL: B3 VL with K27A, T28A, S30A, K31A, A93E
notes: as for B1
B12: HuIgG1 mutant LysH73Arg (antibody, V domains shown)
VH: B1 VH with A57E, K74R
VL: B1 VL
notes: as for B1
B13: HuIgG1 mutant LysH64Ala (antibody, V domains shown)
VH: B1 VH with A57E, K65A
VL: B1 VL
notes: as for B1
B14: HuIgG1 mutant AspH65Ala (antibody, V domains shown)
VH: B1 VH with A57E, D66A
VL: B1 VL
notes: as for B1
B15: HuIgG1 mutant HisH52Ala (antibody, V domains shown)
VH: B1 VH with H52A, A57E
VL: B1 VL
notes: as for B1
B16: HuIgG1 mutant SerH55Ala (antibody, V domains shown)
VH: B1 VH with S56A, A57E
VL: B1 VL
notes: as for B1
B17: HuIgG1 mutant SerH55Gln (antibody, V domains shown)
VH: B1 VH with S56Q, A57E
VL: B1 VL
notes: as for B1
B18: HuIgG1 mutant GlnH61Ala (antibody, V domains shown)
VH: B1 VH with A57E, Q62A
VL: B1 VL
notes: as for B1
B19: HuIgG1 mutant H2A2 (antibody, V domains shown)
VH: B1 VH with S54A, S56A, A57E
VL: B1 VL
notes: as for B1
B20: HuIgG1 mutant GlyH31Ala (antibody, V domains shown)
VH: B1 VH with G31A, A57E
VL: B1 VL
notes: as for B1
B21: humanized MHM24 F(ab)-8 (Fab, V domains shown)
VH: B1 VH with A57E
VL: B3 VL with A93E
notes: F(ab) from E. coli with human kappa CL and CH1
B22: humanized MHM24 F(ab)-6 (Fab, V domains shown)
VH: B1 VH with Y27F, A57E, K76S, N77S
VL: B1 VL
notes: F(ab) from E. coli
B23: humanized MHM24 F(ab)-2 (Fab, V domains shown)
VH: B1 VH with Y27F, A57E, K74N
VL: B1 VL with T53S, Q55E
notes: F(ab) from E. coli
B24: humanized MHM24 F(ab)-4 (Fab, V domains shown)
VH: B1 VH with Y27F, A57E, V72R, K74N
VL: B1 VL with T53S, Q55E
notes: F(ab) from E. coli; F(ab)-2 plus ValH71Arg
B25: humanized MHM24 F(ab)-3 (Fab, V domains shown)
VH: B1 VH with Y27F, A57E, F68A, K74N
VL: B1 VL with T53S, Q55E
notes: F(ab) from E. coli; F(ab)-2 plus PheH67Ala
B26: humanized MHM24 F(ab)-7 (Fab, V domains shown)
VH: B1 VH with A57E, K76S, N77S
VL: B1 VL
notes: F(ab) from E. coli
B27: humanized MHM24 F(ab)-5 (Fab, V domains shown)
VH: B1 VH with Y27F, A57E, K76S, N77S
VL: B1 VL with T53S, Q55E
notes: F(ab) from E. coli
B28: HuIgG1 mutant AspH54Glu (antibody, V domains shown)
VH: B1 VH with D55E, A57E
VL: B1 VL
notes: HuIgG1 mutant, human IgG1; Kabat numbering; also called AspH54 change to Glu

Molecular target: T1, rhesus CD11a
Experiment: rhesus PBL binding

| fold improvement in binding over HuIgG1 [fold] | fold better binding than HuIgG1 [fold] | Binder |
| --- | --- | --- |
| 3 |  | B1 |
|  | 18 | B2 |

Molecular target: T1, rhesus CD11a
Experiment: rhesus PBL binding
Remark: another data set of the same source

| Var.EC50/HuIgG1 EC50 [ratio] | Binder |
| --- | --- |
| 2.9 | B3 |
| 0.7 | B4 |
| 1.3 | B5 |
| 3.3 | B6 |
| 0.3 | B1 |
| 4.9 | B7 |
| 1.3 | B8 |
| 0.7 | B9 |
| 2.7 | B10 |
| 1 | B11 |
| 5.5 | B12 |
| 1.2 | B13 |
| 1.1 | B14 |
| 0.7 | B15 |
| 1.3 | B16 |
| 0.055 | B2 |
| 6.7 | B17 |
| 5.3 | B18 |
| 1.1 | B19 |
| 2.4 | B20 |

Molecular target: T2, human CD11a (human, UniProt P20701 26-1170)
T2 construct: whole, on cells; On Jurkat T-cells or human peripheral blood mononuclear cells, as part of LFA-1; also called CD11a on Jurkat cells; alpha subunit of LFA-1
Experiment: FACScan, Jurkat cells
Protocol: (§1) Aliquots of 10⁶ Jurkat T-cells were incubated with serial dilutions of humanized and control antibodies in PBS-0.1% BSA-10 mM sodium azide for 45 min at 4° C. The cells were washed and then incubated in fluorescein-conjugated goat anti-human F(ab′)₂ (Organon Teknika, Westchester, Pa.) for 45 min at 4° C. Cells were washed and analysed on a FACScan (Becton Dickinson, Mountain View, Calif.). 8×10³ cells were acquired by list mode and gated by forward light scatter versus side light scatter, thereby excluding dead cells and debris.

| EC50 F(ab)/EC50 F(ab)-2 [ratio] | fold improvement in binding over F(ab)-5 [fold] | EC50 [µg/mL] | fold weaker EC50 than chimeric IgG1 [fold] | fold improvement in binding over F(ab)-6 [fold] | fold improvement in binding over F(ab)-2 [fold] | Mutant EC50/HuIgG1 EC50 [ratio] | Binder |
| --- | --- | --- | --- | --- | --- | --- | --- |
| 0.004 |  |  |  |  |  |  | B21 |
| 0.012 | 4 |  |  |  |  |  | B22 |
| 1 |  | 0.771 | 148 |  |  |  | B23 |
| 2.9 |  |  |  |  |  |  | B24 |
| 1.2 |  |  |  |  |  |  | B25 |
| 0.004 |  |  |  | 3 |  |  | B26 |
| 0.043 |  |  |  |  | 23 |  | B27 |
|  |  |  |  |  |  | 16 | B28 |

Molecular target: T2, human CD11a
Experiment: FACScan, Jurkat cells
Remark: another data set of the same source
Protocol: as §1
To determine which CDR residues were involved in binding to human CD11a an alanine-scan (Cunningham et al., Science 244:1081 (1989)) was performed on the CDR residues of HuIgG1. Each mutant was tested for binding to CD11a on Jurkat cells. In the light chain only CDR-L3 contributes to binding.
Target sequence in this assay (P20701 26-1170): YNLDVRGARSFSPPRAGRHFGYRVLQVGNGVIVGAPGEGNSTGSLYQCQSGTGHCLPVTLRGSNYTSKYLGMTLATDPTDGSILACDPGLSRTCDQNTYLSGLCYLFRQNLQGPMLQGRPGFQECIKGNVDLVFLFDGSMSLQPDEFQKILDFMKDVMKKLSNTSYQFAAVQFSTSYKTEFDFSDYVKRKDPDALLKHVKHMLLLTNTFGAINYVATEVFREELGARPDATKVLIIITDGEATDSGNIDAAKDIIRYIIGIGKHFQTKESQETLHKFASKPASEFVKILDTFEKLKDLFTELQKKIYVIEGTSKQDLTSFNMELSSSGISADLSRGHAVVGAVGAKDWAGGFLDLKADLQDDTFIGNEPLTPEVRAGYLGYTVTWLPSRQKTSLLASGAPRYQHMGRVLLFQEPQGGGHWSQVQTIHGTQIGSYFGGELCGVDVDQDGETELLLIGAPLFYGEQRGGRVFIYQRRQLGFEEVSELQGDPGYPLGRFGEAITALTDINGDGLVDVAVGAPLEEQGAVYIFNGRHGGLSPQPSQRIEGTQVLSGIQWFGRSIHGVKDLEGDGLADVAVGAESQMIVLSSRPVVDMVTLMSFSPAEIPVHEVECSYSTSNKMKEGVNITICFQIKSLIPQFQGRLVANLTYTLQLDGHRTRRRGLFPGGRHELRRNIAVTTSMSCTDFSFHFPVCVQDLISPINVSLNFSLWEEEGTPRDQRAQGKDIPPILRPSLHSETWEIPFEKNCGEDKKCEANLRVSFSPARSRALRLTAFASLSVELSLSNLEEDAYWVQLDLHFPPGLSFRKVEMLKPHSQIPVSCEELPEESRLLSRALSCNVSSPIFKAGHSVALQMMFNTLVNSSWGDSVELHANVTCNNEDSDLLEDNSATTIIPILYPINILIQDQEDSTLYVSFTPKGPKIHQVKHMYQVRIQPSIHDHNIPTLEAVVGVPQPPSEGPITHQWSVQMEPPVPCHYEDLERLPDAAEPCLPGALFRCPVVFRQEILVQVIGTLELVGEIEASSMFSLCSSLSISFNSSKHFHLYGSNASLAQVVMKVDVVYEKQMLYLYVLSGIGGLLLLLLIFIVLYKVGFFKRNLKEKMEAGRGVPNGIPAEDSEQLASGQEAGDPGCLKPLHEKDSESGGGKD

| Var.EC50/HuIgG1 EC50 [ratio] | Binder |
| --- | --- |
| 1.7 | B3 |
| 1.8 | B4 |
| 4.6 | B5 |
| 1.1 | B6 |
| 4 | B1 |
| 1.8 | B7 |
| 1.7 | B8 |
| 0.9 | B9 |
| 1.2 | B10 |
| 1.3 | B11 |
| 4.6 | B12 |
| 2.5 | B13 |
| 0.8 | B14 |
| 1.5 | B15 |
| 1.3 | B16 |
| 14.1 | B2 |
| 2.9 | B17 |
| 4.1 | B18 |
| 1.9 | B19 |
| 1.2 | B20 |
